Primed or numbered codes have the meaning given here. Ends that are not written are not given here. FITC′ = not defined here
Key:
[1] = molecular target: T1, TGFβ receptor II (TβR2), R&D, coated on ELISA plate; test: ELISA-like binding assay, receptor coated on plate, FITC fluorescence of bound peptide
T1 construct: Bought protein (R&D), coated at 20 nM; also called TGFβRII; TβRII
Excerpt: We synthesized a peptide […]-FITC (PTβR2I), based on the sequence from a phage display library that binds specifically to […] and interactions between TβR2 and TGFβ1.63-65 We first examined the specific binding of PTβR2I with TβR2 using an ELISA-like binding assay. TGFβ receptor I (TβR1), TGFβ receptor III (TβR3), and IgG were used as controls. […] This finding was further validated on the cellular level. We used human dermal fibroblasts (HDFs) to study the binding affinity of PTβR2I to TβR2 under a glucose level of 4.5 g/L, which mimics the hyperglycemic conditions of diabetes. With PTβR2I added, the HDF binding sites on HDF of TβR2 were occupied, so the TβR2 could not be detected by immunofluorescence (FIG. 5F).
To test the ability of PTβR2I to bind to TβR2, a binding assay was performed. TβR1, TβR3, and IgG were used as controls. In brief, ELISA plates (Costar) were coated with 20 nM of TβR2 (R&D), TβR1 (R&D), or IgG (R&D) and incubated at 4° C. overnight. The plate was blocked with Tris-buffered Saline (TBS) containing 5% bovine serum albumin (BSA) for 1 hour. Then PTβR2I (0.5 μg/mL) was added to the plate and incubated for 2 hours. The fluorescence intensity was read by a microplate reader (Molecular Devices) with a predefined wavelength (excitation/emission=485/535 nm).

[2] = molecular target: T2, TGFβ receptor II (TβR2) on human dermal fibroblasts (HDFs) (human, UniProt P37173 23-567); test: immunofluorescence of HDFs with anti-TβR2 antibody and FITC signal of the peptide
T2 construct: whole, on cells; Endogenous receptor on HDFs cultured at 4.5 g/L glucose; also called TGFβRII
T2 sequence (P37173 23-567): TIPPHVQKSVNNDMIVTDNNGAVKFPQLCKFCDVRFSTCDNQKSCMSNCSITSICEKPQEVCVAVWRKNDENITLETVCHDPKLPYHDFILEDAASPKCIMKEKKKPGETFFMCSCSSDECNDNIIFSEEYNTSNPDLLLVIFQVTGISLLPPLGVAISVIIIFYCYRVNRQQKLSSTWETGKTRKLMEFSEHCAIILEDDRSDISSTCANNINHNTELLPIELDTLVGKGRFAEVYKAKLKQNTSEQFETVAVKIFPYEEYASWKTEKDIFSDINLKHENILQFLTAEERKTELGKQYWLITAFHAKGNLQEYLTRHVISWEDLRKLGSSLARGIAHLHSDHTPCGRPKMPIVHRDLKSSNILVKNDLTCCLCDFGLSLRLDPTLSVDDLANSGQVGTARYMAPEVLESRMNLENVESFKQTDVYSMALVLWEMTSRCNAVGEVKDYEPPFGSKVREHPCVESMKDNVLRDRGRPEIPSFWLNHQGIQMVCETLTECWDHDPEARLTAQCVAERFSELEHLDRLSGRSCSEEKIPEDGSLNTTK

T1 sequence (P37173 whole entry): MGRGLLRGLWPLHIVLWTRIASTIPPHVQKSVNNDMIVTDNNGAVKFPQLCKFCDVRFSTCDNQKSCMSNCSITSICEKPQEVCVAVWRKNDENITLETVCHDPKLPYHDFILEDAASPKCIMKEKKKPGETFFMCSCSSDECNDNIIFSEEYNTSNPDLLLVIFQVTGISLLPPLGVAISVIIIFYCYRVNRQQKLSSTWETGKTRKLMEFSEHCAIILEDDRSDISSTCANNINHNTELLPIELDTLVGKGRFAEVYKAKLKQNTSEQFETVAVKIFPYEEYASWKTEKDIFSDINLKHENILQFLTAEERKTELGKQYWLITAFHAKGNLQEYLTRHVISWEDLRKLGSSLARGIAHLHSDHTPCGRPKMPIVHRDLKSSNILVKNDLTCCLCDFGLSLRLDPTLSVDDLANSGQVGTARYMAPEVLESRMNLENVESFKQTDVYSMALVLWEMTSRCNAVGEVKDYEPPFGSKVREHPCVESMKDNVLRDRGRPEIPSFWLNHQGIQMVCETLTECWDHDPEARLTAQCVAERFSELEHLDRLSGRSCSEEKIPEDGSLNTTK

Kd [1]: 3.4 µM
binding result [2]: binds
Binder: ECGLLPVGRPDRVWRLCK-{FITC′} (cysteine pairing not given here) [peptide-based TGFβ receptor II inhibitor (PTβR2I), ECGLLPVGRPDRVWRLCK-FITC]
